Data published in the DeepSol protein solubility set.

Test: soluble on expression in E. coli; label from the status in PepcDB or PDB records

| Sequence | soluble on expression in E. coli |
| --- | --- |
| MMVWTPVNNKMFETFSYLPPLTDEQIAAQVDYIVANGWIPCLEFAEADKAYVSNESAIRFGSVSCLYYDNRYWTMWKLPMFGCRDPMQVLREIVACTKAFPDAYVRLVAFDNQKQVQIMGFLVQRPKTARDFQPANKRSV | soluble |
| PQQSTWQMATNTPLECRLVHPIPNYGDAEFSSRAGKKINLDFELKMRRPMGDTRNVSLVSMPPVWRPGEGADRITNLQFFKQFDGYIGGQTAWSLLSELEKGRYPTFSYQDWQSRDQRIEVALSSVLFQQPYNEFSDCISKLLPYS | not soluble |
| MGSDKIHHHHHHMKILVAMSGGVDSTVTAYKLKNLGHEVIGCYMKLHGKPNYHEENIKKVEKVANFLQIPYHILDLQEDFKNKVYMPFVDTYKEGKTPNPCALCNRFIKLGKLLEFAKSLGCEKLATGHYARLENNLIKTAVDESKDQSYFLASADKEALKYLIFPLGEMKKEDVKKFASTIEVLKSFATQKESSEICFVEDTYVQVLDQFMDTKIPGEVLDSSGKVVGKHEGYMHYTIGKRRGFEVRGAHEPHFVLKINPKQNQIIVGTKEELKISEFNLKNINLFIDAKELDCEVKIRYRSKSTPCKVEIYEDKSAKIILKDPVYGLASGQMAVFYDHDKVIASGFIE | not soluble |
| SAALRYAGLDDTDSEDELPPGWEERTTKDGWVYYANHTEEKTQWEHPKTGKRKRVAGDLPYGWEQETDENGQVFFVDHINKRTTYLDPRLAFTVDDNPTKPTTRQRYDGSTTAMEILQGRDFTGKVVVVTGANSGIGFETAKSFALHGAHVILACRNMARASEAVSRILEEWQQGAATTVYCAAVPELEGLGGMYFNNCCRCMPSPEAQSEETARTLWALSERLIQERLGSQSG | soluble |
| DPIGHLNKLPVAVVNSDTGVTKEGKTINAGEQITHSLVDQQQAKFIEVSADQARKGIADGTYYFAIEFPTDFSQAATSVKDPQPHQAKLNAVYNNANGFLATMLGNQVVGRVLAAVNENLGSQVANQLLVGFNTIGQGLGAAADGAGQLADGSHKAHDGADKLADGSTQLNNGLQQANDGAHKLYDGAGQLDQGIHTASNGADALADGLTKLNAATDTLGNGAGQVSAGVDKLVGVAQQASDAQAQLTVPLVNLSAQLRATGIPQAIDLANSADGIINSINAAGIGPQSDMMTQLSKLRNGASEIHRQLSDPTAQYRAGINSATEGAQKLSTGLHQLSDGSEKLVIGTKTLADGTTKLSAGSQQLTVGASQLSSGLVRLDEGASELSLKLGESKDKIPQFPDDTIADSARNVSTPVAENVARDSLS | not soluble |
| MAHHHHHHMIEHLNLWLPWKHRKPMWPYPQKNAMPSVFPLEFTTLGEGVVTFSCLCLAAVLAVQEVLTPSHGFPTVLVAFPHKRGGVSSALLYSKVVEAFIQSLRSESALVEAVTVRHMARAALQALNTIINACFSEQYPLYTMAQLLLSEGKAEAKDATHDGGMLGAVDLVLSIDPLSCGGDILHSETQLVMPTPFAIRSVGRCTPGAARQQTNVKLPSALEVTDAALLQMPGAGESSTGRRLSACILERSQVLLTLLK | not soluble |
| RRFEPLLLLPIGFGGLLSNIPEAGLAMTALDHLLHYAHTEQLTIIAEKVNSSSLDVHTIKQAIAFAPPSVQNELEVIASDLGYNAG | not soluble |
| MTSDGMDEWPTGRLLSTAARLVEHSWEDILRSQNMTHAGLICLHTIADRPASQRDIAKVSRVTDQTISRTIDRLERAGYVTRETDPLDERRKRVAITESGRAIYRRLLALEKEDAALTAAVGDVGPLREQLLLLVRSLGLPTRD | not soluble |
| MQLASRFGHVNQIRRDRPLTREELMQVVPSVFGEDKHTSRSENYTWIPTITVLESLQREGFQPFFACQTRVRDPGRRGYTKHMLRLRRDGEINGQHVPEIILLNSHDGTSSYQMLPGYFRFVCQNGCVCGQSLGEVRVPHRGNVVEKVIEGAYEVVGVFDRIEEKRDAMQSLVLPPLARQALAQAALTYRYGDEHQPVTTADILTPRRREDYGKDLWSAYQTIQENMLKGGISGRSAKGKRIHTRAIHSIDTDIKLNRALWVMTETLLENMR | not soluble |
| STQDADRTLKRLQLQMDNLESRVALECKEAFAELQTDINELTNHMDGVQIPFLDYRTYAVRVLFPGIEAHPVLKELDTPPNVEKALRLFGQLLHSRAFLLTFIHTLEAQSSFSMRDRGTVASLTMVALQSRLDYATGLLKQLLADLIEKNLESKNHPKLLLRRTESVAEKMLTNWFTFLLHKFLKECAGEPLFLLYCAIKQQMEKGPIDAITGEARYSLSEDKLIRQQIDYKTLTLHCVCPESEGSAQVPVKVLNCDSITQAKDKLLDTVYKGIPYSQRPKAEDMDLEWRQGRMARIILQDEDITTKIECDWKRVNSLAHYQVTDGSLVALVPKQVSAYNMANSFTFTRSLSRYESLLRAASSPDSLRSRAPMLTPDQEAGTKLWHLVRNHDHTDHREGDRGSKMVSEIYLTRLLATKGTLQKFVDDLFETVFSTAHRGSALPLAIKYMFDFLDEQADQRQISDPDVRHTWKSNCLPLRFWVNVIKNPQFVFDIHKNSITDACLSVVAQTFMDSCSTSEHRLGKDSPSNKLLYAKDIPNYKSWVERYYRDIAKMASISDQDMDAYLVEQSRLHANDFNVLSALSELYFYVTKYRQEILTSLDRDASCRKHKLRQKLEQIITLVSSSS | soluble |
| MAHHHHHHMPCRKIIIDTDCGGDDAIGIMTALADPNTDVIAMTAVWGNVNVNQGMENIGKLLDVFERDIPFYKGAEAPLVSDPETVQWGGFGKDGFGDADFPPSARVLVQSKTHAALAITELLRAAKPDEDAVYQLVCLGPLTNIALAMRLDPEVFHVLGSETEPAITIMGGASEAKGNSNLTSEFNMHCDPEAAYIVFNQRSMRPVRVVSWEVTVDCSMTWTFFDKWIGRQENGKKQQNRFQVFIEKVFQRLETFTRPLPDGTKANTGDAEATQDNTCVIPDAVAVVAALYPESILDRFITYCTVELHGRETRGQTCLDWYGTKQSMAKRGRWCNCELITRVDNARFLEAMNGILEYNV | not soluble |
| MHGVEFAPLERQHGSQVLALLRGTLLVPLPRLHQRLEEAYERDARLGLAQVALCRLAGNAEKVVGVLLARVATRRTCCAQVYIDAVAVDAVFQGQGIGSRLLLRVLTPCLPDGLEVREVFLHTPLQATELVAFYRSCGFESDDEVIDNYYPRRWMPQAQALVLRWRPPTAAQHQHEERKGPQDADVS | not soluble |
| MSELYVAECNAAKARLEVETECRRIIADNYEKVLERAKEYSKKLEAPILAKICEVGYFCGAHVVRTNQVTMEMGANYYGECSIHTAEKILDRRVSEMRRQREEGLDSIRMLDDKIKFAQDNFSSVSIDGGPIEIVEKYDEEMEKLFYQNRKNKKMSQNDEQNEKIIEKNKLNGDQDHNDVMNRLEELEKLEQDNDEMEEAPIPKPFEVSNEDLQDLGKLEEVEEVEQDPTDKKLRFGMNERLLAQPGVTQKEMERLLDFLDTCDEESSDEEYDEDEEEGDDDEENLNNSVEELDSDDYASDDNIEKSNNSDQQLKSKKIETQVIKVEEIVEETVTKTTVKRKKSGVRFAQQLENVKTFHQTDTVEIKEEDSVIETKSILRSTEPTPVDRSALEPEQKELAAMSTMTFPGEIVEKNPYECEPSTSRDPAPVITEKKVSKFRASRHRN | not soluble |
| MSDPYMPLTSVRSGAGFEAAKGVHGLTVQIANVYFIQLPSEPHSFVLIDAGMPQSAGVIVNEAKQRFGEGFQLKAIILTHGHFDHIGAIEEILEHWDVPVYIHSREMPYVTGKEDYPPARPDSKSGLVAKLSPLFPRHSIDISSHVQALPEDGSVPFLDEWMWIATPGHTPGHISLFRDDGRVLVAGDAVITVEQEKMADVLIQKQELHGPPAYFTPDTETAAESILKLAGLEPEALLTGHGIPMTGKNFRSDLTELANRLSSILEHHHHHH | soluble |
| MGSDKIHHHHHHMTIMSIGIIIASHGEFAAGIHQSGSMIFGEQEKVQVVTFMPNEGPDDLYAKFNNAVAAFDAEDEVLVLADLWSGSPFNQASRVMGENPERKFAIITGLNLPMLIQAYTERLMDAAAGVEKVAANIIKEAKDGIKALPEELNPVEEVASAAAAPVAQTAIPEGTVIGDGKLKINLARLDTRLLHGQVATAWTPDSKANRIIVASDNVAKDDLRKELIKQAAPGNVKANVVPIQKLIEISKDPRFGETHALILFETPQDALRAIEGGVPIKTLNVGSMAHSTGKTLVNTVLSMDKEDVATFEKMRDLGVEFDVRKVPNDSKKDLFDLINKANVK | not soluble |
